From PMC3629710 (2013)

Biological target: Abi2-SH3 domain (AbI2B) (SH3 domain array) (Homo sapiens (Human), UniProt Q9NYB9-1)
Assay: SH3 domain array (far-western overlay)

Abi2-SH3 domain (AbI2B) (SH3 domain array), sequence (Q9NYB9 451-510): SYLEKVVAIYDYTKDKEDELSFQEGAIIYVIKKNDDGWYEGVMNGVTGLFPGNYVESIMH

binding result: binds
Binder: SLLFRRTKATAPGPEGGGTLHPNPTDKTSSIQSRPLPSPPKFT (protein) [His-tagged-p130Cas-P2 domain]
